Test results taken from the DeepSol protein solubility set.

Experiment: soluble on expression in E. coli; label from the status in PepcDB or PDB records

Sequence	soluble on expression in E. coli
MIQRLLNEENLLIGISELSEIAEVSPRQLRYWEEKGYISSIAKDANGPRKYRLHTVVKVHWIKRFLDEGYTLQSAVEKAEEQHRNVGMTKKIFSQMFHGISEVCPNYVAIDLGDFDEEQKLYVVFNETTEVSEYLLIPKDADVSDELKKRK	not soluble
MASIFESPELIGAFIGEVEEQLQLLENNVVELEKNGGTAEVVQELFRAAHTLKGSSATMGFEKMKTLTHEMENVLDKIRNGLLEISRPVIDVLFECLDCLNMLKEDFVSDSNNVKTEITPVITKLKEISSENETNNQNSDSDKAENLETGRREQPIFVLDEKQQEQINQALGIGQNVLVCEVEILEDSQMKSVRACLIMNFLNEWGTVINMVPNVMEIPIDSDVGKVAFLVVTQMSADELRQKVQNDLMDIKEVRVFPYFIQNSISQTKDGETGVRDKDNSSGVKTATEEKRVVHTVRIDVDRLERMMDLVGELVIEQIRIAQVANNLYNQYPSDETVDDLIGISNRVSILINELQEGIMKTRMIPVQQLFSRFPRMVRDLSVSLNKEVNLVLEGGETEIDRTIMEEMSDPLIHLIRNAIDHGIENPEIRKKLGKPEQGTLRVTALPEDSNVIITVEDDGAGIDPQEIKQSAIKKRIVTEQEANNMTEQQLINLIFQTGFSTSQKVSDVSGRGVGMDIVKTHIEKLNGIIDVETCAGSGTKFIIKLPIKLPLTLAILKGLLVKISNETYALPMNNVVEIVRKPKNEIESINGQAVAVIRDRAIPLIWLHDYFGIPRGNERKNTLIVLLGIAEKRFGLVVDELIGNQEIVVTNLGSYIGKVEGISGATILGDRSVACILDVVGIAKIVNSRKVSRIDVEYSKQ	not soluble
MAHHHHHHMKRGNEVAREMWAPSTWEQRMSLAGQFTTFCRTHEQPINEESRAALLVAILDVAPPTRPQHARMLRSMLEMNRTPLGMAILGLQKLAARSETRQARSLTKEGMDQFIRSRIDWNQRVVFRLACMTASRWSGIAALTPNNATLEADGTIILDWSVAPKTARADPHRAPRFVGIRGRDALDTITLCRTLQENEKLTNVTNAKVERALAPWDATAHSIKRGALRHAAQIVETCNLDPHVISQLAKHVDPFVLPQNTVRYFWKYTTVLTQVLPLVVLM	not soluble
MGHHHHHHSHALKRLEVEVELFNQPSEELENFDFIVSVGGDGTILRILQKLKRCPPIFGINTGRVGLLTHASPENFEVELKKAVEKFEVERFPRVSCSAMPDVLALNEIAVLSRKPAKMIDVALRVDGVEVDRIRCDGFIVATQIGSTGYAFSAGGPVVEPYLECFILIPIAPFRFGWKPYVVSMERKIEVIAEKAIVVADGQKSVDFDGEITIEKSEFPAVFFKNEKRFRNL	not soluble
IGQVNYNIGFNMADSRSFVDKYPNKSKSLSTYYKDQELGAIWGYVTHGIAKSQSEMDEWTKDNKPSWGSGWGEGDIMFEDLNGDKVINEGANTVDDPGDRKIIGNSTPRFRFGLDLGVEWKGIDFSMFWQGVAKRDLWLDGPMFWGISGGEWQSTGLKEHLDYYRPENTTSVFGPNTNAYFPKMYMSKDMNQKVQTRYLQNGAYARLKNIQLGYTFPTQIINKLHMQKLRVYVSAENVLTITSLPSGFDPETTYSNYSDGNSGKTYPLQTTISFGLNATF	not soluble
MGSDKIHHHHHHMAKQLPDIGDYKYGFKDKDVSIFRAGRGLTKEIVEEISRMKEEPQWMLDFRLKSLDKFYEMPMPQWGGDLNDLDFDEITYYVKPSEKSEKSWDEVPDEIKATFDKLGIPEAEQKYLAGVSAQYESEVVYHNMKEDLEALGIVFKDTDSALKENEDIFREHFGKVIPPTDNKFAALNSAVWSGGSFIYVPKGVKVDTPLQAYFRINSENMGQFERTLIIVDEGAHVHYVEGCTAPVYTTNSLHSAVVEIIIKKDAYCRYTTIQNWANNVYNLVTKRAVCEENATMEWIDGNIGSKLTMKYPAVILKGEGARGLTLSIAIAGKGQHQDAGAKMIHLAPNTSSTIVSKSIAKHGGKVTYRGIVHFGPKAKNSRSNIECDTLIMDNQSTSDTIPYNEIKNDYVSLEHEAKVSKVSEEQLFYLMSRGISEQEATEMIVMGFIEPFTRELPMEYAVEMNRLIKFEMEGSIG	not soluble
MLKILKRIVQDVTAASDLKEALGILVQRINTAINAEAVSVYLIDNKNAEYVLIATEGLNKQAEFRVRIALDCGLIGLIGRREEPINIENAPSHPDFYHNPLIGEDHLNAFLGVPIIQHRKLYGVLVVQQLEQRYFDDAEESFLITLAAQLGGIIAHAEATGELAELTQ	not soluble
SLQCLRFAGAATHPAQAPCMPGPACEPVETFLKTCQAPGSEPTGAASLRAKYLPPSTASIRVSAGLLRAALEDSHSGFHLCSATLRWLLAENAAVDVVRAQTLSSIQGIAPDGTDVNLTVHEVAVTDLSPAGPIQAVEIQVESSSLANMCRAHHAIIRRIQTMVTEQAALGSSPPDLRMQYLQQIHANHQELLREVQALRDQLCTEDELSSCSTAQKLLHIYKQLRNPSLVLL	not soluble
MNITKTLCLCAALSGAAGVQAMENREFVTQQDNTRVNNYQTNRPEASKRLFVSQEVERQIDHIKQLLTNAKLAWMFENCFPNTLDTTVHFDGKEDTFVYTGDIHAMWLRDSGAQVWPYVQLANKDPELKKMLAGVINRQFKCINIDPYANAFNMNSEGGEWMSDLTDMKPELHERKWEIDSLCYPIRLAYHYWKTTGDASVFSDEWLQAIANVLKTFKEQQRKDDAKGPYRFQRKTERALDTMTNDGWGNPVKPVGLIASAFRPSDDATTFQFLVPSNFFAVTSLRKAAEILNTVNRKPALAKECTALADEVEKALKKYAVCNHPKYGKIYAFEVDGFGNQLLMDDANVPSLIALPYLGDVKVTDPIYQNTRKFVWSEDNPYFFKGSAGEGIGGPHIGYDMIWPMSIMMKAFTSQNDAEIKTCIKMLMDTDAGTGFMHESFNKNDPKNFTRAWFAWQNTLFGELILKLVNEGKVDLLNSIQLEHHHHHH	soluble
MFKLLKTFQIVYEQMNFSKAATCLYISQPAVSNQIKQLEEELGCSLFLRNGRQDVVPTRQAEVLYNRLLNLADDWQETLTALHQARLPKETCRIAASNTFAVYYLPQLMQHLQTQYATINFVLEMNNSEEVVEKVEKHQVDFGFIEKPLITKGATREEIIQDQLVLAGDPANQNWLVREKDSGVFHYTQQYLEESNQSPTLMTVKNNEMIVKMLELGMGQSLLSRKAITEKIPFQTLGEKYWRSFYFLTRGHLKSSLLQEVKQAIYRFYQTEMNKY	not soluble
MGSDKIHHHHHHMNMPNSFSNSHIYLGNVMHRRFSPKKHSFDYRLFMLALDVADVEKAQGGFGVFGFSWYRPLRFVETDYLKESIKDNSKDNLAGDPRSLSHRIKNKVHELAGYADIKRIVMLVQVRCFGIYFSPANFYFCYDQDDKCTQMLAEVSNTPWNERHYYLVDLLKEEGDKTTKKMFQVSPFMDLAMTYFWQVTPPCNGNDKLLVKIENKRVNDESGTVSKLFDASLVMRRKPFTKASLLRIWGQLPVMTMKVVVTIYWQALKLFIKRVPFIGYQKPS	not soluble
MSGPNGDLGMPVEAGAEGEEDGFGEAEYAAINSMLDQINSCLDHLEEKNDHLHARLQELLESNRQTRLEFQQQLGEAPSDASP	soluble
MRVDLERQQHQFLRRTYGPQHRLTTQQALTVMRVAAREQTRYSQRTTQCVAAHLLEQRAAVQQELQRARQLQSGNVDDALDSLTELKDTVDDVRATLVDSVSATCDLDLEVDDAVLEHHHHHH	not soluble
MSLAQFVDWDLAAATAGTLGKTGPRVSYVEATAVVGDLRQLTDEAAEHVADFTGLRSQVSHPPVQVVDRRDWAATNVAGLREMIGPLVGRLAGDKQPSVLTEAIGSRITGVQAGTVLAYLSGRVLGQYEVFSGEPGQLLLIAPNIVEVERKLAADPRDFRMWVCLHEVTHRTQFTAVPWLRAYFLGEVQAFVDASSSGGEPLVERLRRGITVLADAVREPAGRTSVLDIVQTPAQKAVLDRLTALMTLLEGHAEFVMDGVGPQVIPSVERIRASFNRRRESGNPLEKALRRLLGVEVKLRQYAEGRSFVHGVVERVGMEGFNRVFASPLTLPRLAELSDPDAWVARVHGPAGPLPAGDEGHHHHHH	soluble
MGSDKIHHHHHHMKLQQLEYFMAVSKYASFTLASQKLHTSQPYLSTQLKELERELGASLILRDKKHCRLSPAGEVVAKRTEMIFALIKEAQEEINELVTQGSTTTIRIGTNLIDIDKAFGEVLLLFNQSYPYVSIDFKYYYDLETALETDLIDIGIGIFLDTSIPLEKELIYTESYLLCVNKNHPLAHADSVTIDEIRSLPFAAYSDQVYEKKVFKRWERKINWENRQIVIELPSLHLVLDMVQREKACSILPYSLTDELNRRNLVGIPLEDSPERAIYLVQNNHHGHCEAHRYLFEQLRYLF	not soluble
VPGPEYKVAILTVSDTVSAGAGPDRSGPRAVSVVDSSSEKLGGAKVVATAVVPDEVERIKDILQKWSDVDEMDLILTLGGTGFTPRDVTPEATKKVIERETPGLLFVMMQESLKITPFAMLARSAAGIRGSTLIINMPGNPNAVAECMEALLPALKHALKQIKGDKR	soluble
MDYYYSLISPPCQSAILLAKKLGITLNLKKTNVHDPVERDALTKLNPQHTIPTLVDNGHVVWESYAIVLYLVETYAKDDTLYPKDPKVRSVVNQRLFFDIGTLYKRIIDVIHLVMKKEQPSDEQMEKLKGALDLLEQFVTERAYAAADHLTVADICLLGTVTALNWLKHDLEPFPHIRAWLERVRAEMPDYEEFSKQVADDTLAYVASRK	soluble
MGSDKIHHHHHHMELVDKDLRSIQETRNLIRKAKEAQQVLATFSQKQIDAIVQAVSEATFNQREKLAKMANEETGFGIYEDKIIKNAFASKVVYDEMKDKATVGVIHDDAAKKVTEIAVPVGVIAGLIPSTNPTSTVIYKALISLKAANSIVFSPHPNALKSIIETVEIIQKAAIAAGAPEGCVSVIKTPTMQATSELMKNKETNLILATGGNAMVKAAYSSGTPAIGVGPGNGPAYIERSANVPHAVKQIMDSKTFDNGTICASEQSIIVETVNREAVKEELIKQGAYFLSPAEADKLAKFILRPNGTMNPQIVGRSVQHIASLVGLSIPKDRRLIVAEETHVGLKYPFSREKLAPIIAFYTVENWEAACALSIEILKGEGAGHTMGIHTENKEVIREFGLRKPVSRLLVNTSGTLGGIGASTNLVPALTLGCGAVGGSSTSDNIGVENLFNLRRVAYGVRDLEEIRQEFGQTSTTSVATSCETTNQEELVNAVVAQVLARLN	not soluble
AGGPGSRARAAGARGCRLRSQLVPVRALGLGHRSDELVRFRFCSGSCRRARSPHDLSLASLLGAGALRPPPGSRPVSQPCCRPTRYEAVSFMDVNSTWRTVDRLSATACGCLG	soluble
MGSDKIHHHHHHVDDRPGTTGIRRTNPVMTDPKHRTEAPFDEQIIREYLIDNPDFFGRYPELLLAMRMSHTERGTVSLLERRQEMYRNRVAQLEEEITALMTQARRNEKIFRFNNDLQFKLLASAALGDVRQILSQALMSEFGFTHVRLITVHDVDSELSAIWSNRLARGHYFGRLTASESRRLFGSEVGSVALTRLSEHCGQVVFAIASQDPAHFHPEMDNLLLDQLRRILDHLLPRL	not soluble
MPQVAGGRPRPPRGFRDFPPEVMILRKRLLSRLERVFESYGFDPLDTPAVEYWETLSGKYGEEAESRLIWRFQDPWSGRWYALRYDLTVPLARFVASNPGLPMPFKRYHIGKVWRHEEPQKGRYREFVQCDADIVGSPYPEADAEIVSLAVDSIDALGLPGFRVRVNDRRLLAGVFEEELGFDNPLPIYRAIDKLDKIGVEGVRRELERLGLPGSTVERIMEIISWRGRPGEVLESVRRGYGSNEKVREALDHLEEMLSLADDKRVELDMSLVRGLDYYTGPILEVVLDEPRIGSVAGGGRYDGLVGMFAGRDIPATGVSIGIERIIDAGLELGVYSLDVKTVAQVAVVVLDRRYYRYAWEAARILRRGGLNVRIDLSRASGQVQRRKASRLGIPVLAFVGAKEAEGGFLTLYSAAKGERVAVPLGEAVKAVERLLPS	soluble
